{"source": "patent US7897573B2", "about": "“Selective VPAC2 receptor peptide agonists” (priority 2005, dated 2011)", "key": {"[1]": {"target": "T1, Human VPAC2 Receptor (Homo sapiens, UniProt P41587)", "T1 sequence (P41587 24-438)": "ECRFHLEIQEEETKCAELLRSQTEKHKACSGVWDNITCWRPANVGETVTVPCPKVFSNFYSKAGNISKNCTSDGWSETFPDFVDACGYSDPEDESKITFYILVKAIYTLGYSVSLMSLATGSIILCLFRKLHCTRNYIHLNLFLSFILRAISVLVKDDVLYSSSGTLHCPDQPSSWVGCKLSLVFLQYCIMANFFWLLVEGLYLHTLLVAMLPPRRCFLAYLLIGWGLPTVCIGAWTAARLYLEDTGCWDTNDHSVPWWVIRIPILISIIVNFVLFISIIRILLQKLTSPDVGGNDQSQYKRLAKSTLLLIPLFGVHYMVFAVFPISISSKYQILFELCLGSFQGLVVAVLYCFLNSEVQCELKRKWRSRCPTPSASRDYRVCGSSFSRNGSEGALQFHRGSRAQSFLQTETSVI", "experiment": "Filter binding assay, 125I-labeled VIP, membranes of stable VPAC2 cell line", "conditions": "125I-labeled VIP tracer", "procedure": "For this assay, the solutions and equipment include:\nPresoak solution: 0.5% Polyethyleneamine in Aqua dest\nBuffer for flushing filter plates: 25 mM HEPES pH 7.4\nBlocking buffer: 25 mM HEPES pH 7.4; 0.2% protease free BSA\nAssay buffer: 25 mM HEPES pH 7.4; 0.5% protease free BSA\nDilution and assay plate: PS-Microplate, U form\nFiltration Plate Multiscreen FB Opaque Plate; […] Type B Glasfiber filter\nIn order to prepare the filter plates, the presoak solution is aspirated by vacuum filtration. The plates are flushed twice with 200 μL flush buffer. 200 μL blocking buffer is added to the filter plate. The filter plate is then incubated with 200 μL presoak solution for 1 hour at room temperature.\nThe assay plate is filled with 25 μL assay buffer, 25 μL membranes (2.5 μg) suspended in assay buffer, 25 μL agonist in assay buffer, and 25 μL tracer (about 40000 cpm) in assay buffer. The filled plate is incubated for 1 hour with shaking.\nThe transfer from assay plate to filter plate is conducted. The blocking buffer is aspirated by vacuum filtration and washed two times with flush buffer. 90 μL is transferred from the assay plate to the filter plate. The 90 μL transferred from assay plate is aspirated and washed three times with 200 μL flush buffer. The plastic support is removed. It is dried for 1 hour at 60° C. 30 μL Microscint is added. The count is performed."}, "[2]": {"target": "T2, Rat VPAC2 Receptor (Rattus norvegicus, UniProt P35000)", "T2 construct": "expressed in transfected cells; host or cells: CHO-PO (transient, Lipofectamine)", "T2 sequence (P35000 23-437)": "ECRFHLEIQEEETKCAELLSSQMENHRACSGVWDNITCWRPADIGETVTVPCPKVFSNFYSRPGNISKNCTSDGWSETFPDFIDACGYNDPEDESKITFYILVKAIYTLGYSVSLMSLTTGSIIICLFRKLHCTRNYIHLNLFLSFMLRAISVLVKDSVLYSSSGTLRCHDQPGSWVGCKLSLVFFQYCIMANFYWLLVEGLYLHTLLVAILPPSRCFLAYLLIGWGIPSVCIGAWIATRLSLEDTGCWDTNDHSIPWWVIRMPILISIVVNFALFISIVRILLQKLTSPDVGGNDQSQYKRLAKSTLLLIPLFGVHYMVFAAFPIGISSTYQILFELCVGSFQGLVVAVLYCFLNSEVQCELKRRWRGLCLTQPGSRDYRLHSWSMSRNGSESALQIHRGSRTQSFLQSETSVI", "experiment": "DiscoveRx cAMP potency, CHO-PO cells transiently transfected with rat VPAC2 receptor", "type": "cell-based", "conditions": "cAMP generation", "procedure": "(§1) DiscoveRx: CHO-PO cells are transiently transfected with rat VPAC1 or VPAC2 receptor DNA using commercially available transfection reagents (Lipofectamine from Invitrogen). The cells are seeded at a density of 10,000/well in a 96-well plate and are allowed to grow for 3 days in […] culture medium At day 3, the assay is performed.\n(§2) On the day of the experiment, the medium is removed. Also, the cells are washed twice. The cells are incubated in assay buffer plus IBMX for 15 minutes at room temperature. Afterwards, the stimuli are added and are dissolved in assay buffer. The stimuli are present for 30 minutes. Then, the assay buffer is gently removed. The cell lysis reagent of the DiscoveRx cAMP kit is added. Thereafter, the standard protocol for developing the cAMP signal as described by the manufacturer is used (DiscoveRx Inc., USA). EC50 values for cAMP generation are calculated from the raw signal or are based on absolute cAMP levels as determined by a standard curve performed on each plate.\n(§3) Results for each agonist are the mean of two independent runs. Rat VPAC1 and VPAC2 results are only generated using the DiscoveRx assay."}, "[3]": {"target": "T3, Rat VPAC1 Receptor (Rattus norvegicus, UniProt P30083)", "T3 construct": "expressed in transfected cells; host or cells: CHO-PO (transient, Lipofectamine)", "T3 sequence (P30083 31-459)": "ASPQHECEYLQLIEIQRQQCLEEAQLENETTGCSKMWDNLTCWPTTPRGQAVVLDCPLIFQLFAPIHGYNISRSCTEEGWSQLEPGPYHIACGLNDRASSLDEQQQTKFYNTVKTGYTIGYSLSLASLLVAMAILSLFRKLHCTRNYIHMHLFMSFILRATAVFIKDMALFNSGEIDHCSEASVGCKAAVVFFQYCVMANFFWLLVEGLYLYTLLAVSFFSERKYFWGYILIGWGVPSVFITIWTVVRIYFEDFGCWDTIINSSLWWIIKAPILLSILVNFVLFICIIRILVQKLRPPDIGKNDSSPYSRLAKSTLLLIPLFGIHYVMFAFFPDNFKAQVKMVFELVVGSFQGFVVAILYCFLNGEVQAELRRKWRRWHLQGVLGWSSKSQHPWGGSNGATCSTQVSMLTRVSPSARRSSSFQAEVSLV", "experiment": "DiscoveRx cAMP potency, CHO-PO cells transiently transfected with rat VPAC1 receptor", "type": "cell-based", "conditions": "cAMP generation", "procedure": "as §1, §2, §3"}, "[4]": {"target": "T1, Human VPAC2 Receptor", "experiment": "Alpha screen cAMP potency at human VPAC2 receptor", "type": "cell-based", "conditions": "cAMP generation; read-out: Human VPAC2 Receptor: Alphascreen (EC50; nM)", "procedure": "Alpha screen: Cells are washed in the culture flask once with PBS. Then, the cells are rinsed with enzyme free dissociation buffer. The dissociated cells are removed. The cells are then spun down and washed in stimulation buffer. For each data point, 50,000 cells suspended in stimulation buffer are used. To this buffer, Alpha screen acceptor beads are added along with the stimuli. This mixture is incubated for 60 minutes. Lysis buffer and Alpha screen donor beads are added and are incubated for 60 to 120 minutes. The Alpha screen signal (indicative of intracellular cAMP levels) is read in a suitable instrument (e.g. AlphaQuest from Perkin-Elmer). Steps including Alpha screen donor and acceptor beads are performed in reduced light. The EC50 for cAMP generation is calculated from the raw signal or is based on absolute cAMP levels as determined by a standard curve performed on each plate.\nThe tested peptide concentrations are: 10000, 1000, 100, 10, 3, 1, 0.1, 0.01, 0.003, 0.001, 0.0001 and 0.00001 nM."}, "[5]": {"experiment": "Rat serum stability study (DiscoveRx cAMP read-out on CHO-VPAC2 cells)", "conditions": "24 h in rat serum at 37° C.; EC50, 4° C./EC50, 37° C.; values >100% may represent release of intact peptide from the PEG conjugate"}}, "data": [{"substance": "C6-HSDAVFTEQY(OMe)TOrnLRAibQK(WPEG40K)AAAibOrnYLQSIOrnOrnGGPSSGAPPPS-NH2 (HSDAVFTEQYTXLRXQXAAXXYLQSIXXGGPSSGAPPPS; C6 acyl, PEG40K on Lys, C-terminal amide; Synthetic sequence PEGylated VPAC2 receptor agonist) [Agonist P533]", "values": [{"measurement": "IC50", "setting": "[1]", "result": 959, "unit": "nM"}]}, {"substance": "C6-HSDAVFTEQY(OMe)TOrnLRAibQLAAbuAibOrnY(OMe)LQSIOrnC(PEG20K)OrnGGPSSGAPPPC(PEG20K)-NH2 (HSDAVFTEQYTXLRXQLAXXXYLQSIXCXGGPSSGAPPPC; C6 acyl, non-natural residues, two PEG20K, C-terminal amide; Synthetic sequence PEGylated VPAC2 receptor agonist) [Agonist P588]", "values": [{"measurement": "EC50", "setting": "[2]", "result": 311, "unit": "nM"}, {"measurement": "EC50", "setting": "[3]", "result": 406, "unit": "nM"}, {"measurement": "EC50", "setting": "[4]", "result": 54, "unit": "nM"}]}, {"substance": "C6-HSDAVFTEQY(OMe)TOrnLRAibQC(PEG40K)AAbuAibOrnY(OMe)LQAibIOrnOrnGGPSSGAPPPS-NH2 (HSDAVFTEQYTXLRXQCAXXXYLQXIXXGGPSSGAPPPS; C6 acyl, non-natural residues, PEG40K, C-terminal amide; Synthetic sequence PEGylated VPAC2 receptor agonist) [Agonist P578]", "values": [{"measurement": "EC50", "setting": "[2]", "result": 306, "unit": "nM"}, {"measurement": "EC50", "setting": "[3]", "result": 269, "unit": "nM"}, {"measurement": "EC50", "setting": "[4]", "result": 205, "unit": "nM"}]}, {"substance": "C6-HSDAVFTEK(CO(CH2)2SPEG40K)Y(OMe)TOrnLRAibQVAAAibOrnYLQSIOrnOrnGGPSSGAPPPS-NH2 (HSDAVFTEXYTXLRXQVAAXXYLQSIXXGGPSSGAPPPS; C6 acyl; PEG40K; non-natural residues; amide; Synthetic sequence PEGylated VPAC2 receptor peptide agonist) [Agonist P451]", "values": [{"measurement": "IC50", "setting": "[1]", "result": 596, "unit": "nM"}, {"measurement": "EC50", "setting": "[4]", "result": 68.6, "unit": "nM"}]}, {"substance": "C6-HSDAVFTEQY(OMe)TOrnLRAibQC(PEG40K)AAbuAibOrnY(OMe)LQSIOrnOrnGGPSSGAPPPS-NH2 (HSDAVFTEQYTXLRXQCAXXXYLQSIXXGGPSSGAPPPS; C6 acyl, non-natural residues, PEG40K, C-terminal amide; Synthetic sequence PEGylated VPAC2 receptor agonist) [Agonist P586]", "values": [{"measurement": "EC50", "setting": "[2]", "result": 187, "unit": "nM"}, {"measurement": "EC50", "setting": "[3]", "result": 502, "unit": "nM"}, {"measurement": "EC50", "setting": "[4]", "result": 122, "unit": "nM"}]}, {"substance": "C6-HSDAVFTEQY(OMe)TOrnLRAibQLAAbUAibOrnY(OMe)LQAibIOrnC(PEG40K)OrnGGPSSGAPPPS-NH2 (HSDAVFTEQYTXLRXQLAXXXYLQXIXCXGGPSSGAPPPS; C6 acyl, non-natural residues, PEG40K, C-terminal amide; Synthetic sequence PEGylated VPAC2 receptor agonist) [Agonist P576]", "values": [{"measurement": "EC50", "setting": "[2]", "result": 67.4, "unit": "nM"}, {"measurement": "EC50", "setting": "[3]", "result": 461, "unit": "nM"}, {"measurement": "EC50", "setting": "[4]", "result": 55, "unit": "nM"}]}, {"substance": "C6-HSDAVFTEQY(OMe)TOrnLRAibQLAAbuAibOrnY(OMe)LQSIOrnC(PEG40K)OrnGGPSSGAPPPS-NH2 (HSDAVFTEQYTXLRXQLAXXXYLQSIXCXGGPSSGAPPPS; C6 acyl, non-natural residues, PEG40K, C-terminal amide; Synthetic sequence PEGylated VPAC2 receptor agonist) [Agonist P584]", "values": [{"measurement": "EC50", "setting": "[2]", "result": 67.2, "unit": "nM"}, {"measurement": "EC50", "setting": "[3]", "result": 188, "unit": "nM"}, {"measurement": "EC50", "setting": "[4]", "result": 51.2, "unit": "nM"}]}, {"substance": "C6-HSDAVFTEQY(OMe)TOrnLRAibQVAAAibK(CO(CH2)2SPEG40K)YLQSIOrnOrnGGPSSGAPPPS-NH2 (HSDAVFTEQYTXLRXQVAAXXYLQSIXXGGPSSGAPPPS; C6 acyl; PEG40K; non-natural residues; amide; Synthetic sequence PEGylated VPAC2 receptor peptide agonist) [Agonist P472]", "values": [{"measurement": "EC50", "setting": "[2]", "result": 285, "unit": "nM"}, {"measurement": "24 h stab (%)", "setting": "[5]", "result": 66, "unit": "%"}, {"measurement": "EC50", "setting": "[4]", "result": 123, "unit": "nM"}]}, {"substance": "C6-HSDAVFTEQY(OMe)TOrnLRAibQC(PEG20K)AAAibOrnYLQSIOrnOrnGGPSSGAPPPC(PEG20K)-NH2 (HSDAVFTEQYTXLRXQCAAXXYLQSIXXGGPSSGAPPPC; C6 acyl, two PEG20K, C-terminal amide; Synthetic sequence PEGylated VPAC2 receptor agonist) [Agonist P568]", "values": [{"measurement": "EC50", "setting": "[2]", "result": 250, "unit": "nM"}, {"measurement": "EC50", "setting": "[3]", "result": "> 1000", "unit": "nM"}, {"measurement": "EC50", "setting": "[4]", "result": 129, "unit": "nM"}]}, {"substance": "C6-HSDAVFTEQY(OMe)TOrnLRAibQVAAAibOrnYAibQSIOrnOrnGGPSSGAPPPC(PEG40K)-NH2 (HSDAVFTEQYTXLRXQVAAXXYXQSIXXGGPSSGAPPPC; C6 acyl, PEG40K on Cys, C-terminal amide; Synthetic sequence PEGylated VPAC2 receptor agonist) [Agonist P507]", "values": [{"measurement": "EC50", "setting": "[2]", "result": 94.9, "unit": "nM"}, {"measurement": "EC50", "setting": "[3]", "result": "> 1000", "unit": "nM"}, {"measurement": "EC50", "setting": "[4]", "result": 27.1, "unit": "nM"}]}]}
